# Square brackets hold non-standard residues; d marks the D form. Ends that are not written are not given here. * marks the point of attachment. Phe(F5) = N[C@@H](Cc1c(F)c(F)c(F)c(F)c1F)C(=O)O; Palmitoyl = CCCCCCCCCCCCCCCC(=O)*; Nle = CCCC[C@H](N)C(=O)O; NOMe = CON*
# T1: human PrRP receptor GPR10 (human, UniProt P49683 1-370)
# T1 construct: whole, on cells; also called GPR10 human receptor transfected in CHO cells; human GPR10 receptor
# T1 sequence (looked up): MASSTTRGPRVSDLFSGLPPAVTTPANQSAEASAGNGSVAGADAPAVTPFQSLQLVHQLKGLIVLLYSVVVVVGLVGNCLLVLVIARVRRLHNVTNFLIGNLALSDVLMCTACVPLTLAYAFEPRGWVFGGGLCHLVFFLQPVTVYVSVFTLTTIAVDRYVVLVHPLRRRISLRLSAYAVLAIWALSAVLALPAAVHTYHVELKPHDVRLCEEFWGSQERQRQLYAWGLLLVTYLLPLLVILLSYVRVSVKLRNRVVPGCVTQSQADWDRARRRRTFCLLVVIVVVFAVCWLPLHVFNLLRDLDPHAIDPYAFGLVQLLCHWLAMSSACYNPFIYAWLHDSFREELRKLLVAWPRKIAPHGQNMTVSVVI
# T2: rat PrRP receptor in RC-4B/C cells (rat, UniProt Q64121 1-370)
# T2 construct: whole, on cells; endogenous receptor of RC-4B/C cells (ATCC); also called rat receptor; GPR10 receptor expressed in rat hypophyseal cells
# T2 sequence (looked up): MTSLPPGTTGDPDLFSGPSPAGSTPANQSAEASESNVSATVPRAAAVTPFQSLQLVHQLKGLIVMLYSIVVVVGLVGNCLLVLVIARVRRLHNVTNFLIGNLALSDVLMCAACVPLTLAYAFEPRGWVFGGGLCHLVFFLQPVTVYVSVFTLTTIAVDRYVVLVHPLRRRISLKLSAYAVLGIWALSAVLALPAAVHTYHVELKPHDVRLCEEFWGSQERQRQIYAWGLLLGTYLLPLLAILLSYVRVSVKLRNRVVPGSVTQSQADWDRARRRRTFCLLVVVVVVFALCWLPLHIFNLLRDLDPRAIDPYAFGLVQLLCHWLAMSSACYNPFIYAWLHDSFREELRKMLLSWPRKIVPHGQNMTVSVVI
# B1: analog no. 45 (peptide)
# peptide: Palmitoyl-SRTHRHSMEIRTPDINPAWYASRGIRPVGRF-NOMe
# SMILES: CCCCCCCCCCCCCCCC(=O)N[C@@H](CO)C(=O)N[C@@H](CCCNC(=N)N)C(=O)N[C@H](C(=O)N[C@@H](Cc1c[nH]cn1)C(=O)N[C@@H](CCCNC(=N)N)C(=O)N[C@@H](Cc1c[nH]cn1)C(=O)N[C@@H](CO)C(=O)N[C@@H](CCSC)C(=O)N[C@@H](CCC(=O)O)C(=O)N[C@H](C(=O)N[C@@H](CCCNC(=N)N)C(=O)N[C@H](C(=O)N1CCC[C@H]1C(=O)N[C@@H](CC(=O)O)C(=O)N[C@H](C(=O)N[C@@H](CC(N)=O)C(=O)N1CCC[C@H]1C(=O)N[C@@H](C)C(=O)N[C@@H](Cc1c[nH]c2ccccc12)C(=O)N[C@@H](Cc1ccc(O)cc1)C(=O)N[C@@H](C)C(=O)N[C@@H](CO)C(=O)N[C@@H](CCCNC(=N)N)C(=O)NCC(=O)N[C@H](C(=O)N[C@@H](CCCNC(=N)N)C(=O)N1CCC[C@H]1C(=O)N[C@H](C(=O)NCC(=O)N[C@@H](CCCNC(=N)N)C(=O)N[C@@H](Cc1ccccc1)C(=O)NOC)C(C)C)[C@@H](C)CC)[C@@H](C)CC)[C@@H](C)O)[C@@H](C)CC)[C@@H](C)O
# B2: analog no. 25 (peptide)
# peptide: [dF][dR]GVPRIGRGTYWAPNIDPT-NH2
# modifications: N-terminus assumed
# SMILES: CC[C@H](C)[C@H](NC(=O)[C@H](CCCNC(=N)N)NC(=O)[C@@H]1CCCN1C(=O)[C@@H](NC(=O)CNC(=O)[C@@H](CCCNC(=N)N)NC(=O)[C@H](N)Cc1ccccc1)C(C)C)C(=O)NCC(=O)N[C@@H](CCCNC(=N)N)C(=O)NCC(=O)N[C@H](C(=O)N[C@@H](Cc1ccc(O)cc1)C(=O)N[C@@H](Cc1c[nH]c2ccccc12)C(=O)N[C@@H](C)C(=O)N1CCC[C@H]1C(=O)N[C@@H](CC(N)=O)C(=O)N[C@H](C(=O)N[C@@H](CC(=O)O)C(=O)N1CCC[C@H]1C(=O)N[C@H](C(N)=O)[C@@H](C)O)[C@@H](C)CC)[C@@H](C)O
# notes: scrambled peptide; also called 25 scram
# B3: analog no. 51 (peptide)
# peptide: SRTHRHSMEIRTPDINPK(Palmitoyl)WYASRGIRPVGRF-NH2
# modifications: N-terminus assumed
# SMILES: CCCCCCCCCCCCCCCC(=O)NCCCC[C@H](NC(=O)[C@@H]1CCCN1C(=O)[C@H](CC(N)=O)NC(=O)[C@@H](NC(=O)[C@H](CC(=O)O)NC(=O)[C@@H]1CCCN1C(=O)[C@@H](NC(=O)[C@H](CCCNC(=N)N)NC(=O)[C@@H](NC(=O)[C@H](CCC(=O)O)NC(=O)[C@H](CCSC)NC(=O)[C@H](CO)NC(=O)[C@H](Cc1c[nH]cn1)NC(=O)[C@H](CCCNC(=N)N)NC(=O)[C@H](Cc1c[nH]cn1)NC(=O)[C@@H](NC(=O)[C@H](CCCNC(=N)N)NC(=O)[C@@H](N)CO)[C@@H](C)O)[C@@H](C)CC)[C@@H](C)O)[C@@H](C)CC)C(=O)N[C@@H](Cc1c[nH]c2ccccc12)C(=O)N[C@@H](Cc1ccc(O)cc1)C(=O)N[C@@H](C)C(=O)N[C@@H](CO)C(=O)N[C@@H](CCCNC(=N)N)C(=O)NCC(=O)N[C@H](C(=O)N[C@@H](CCCNC(=N)N)C(=O)N1CCC[C@H]1C(=O)N[C@H](C(=O)NCC(=O)N[C@@H](CCCNC(=N)N)C(=O)N[C@@H](Cc1ccccc1)C(N)=O)C(C)C)[C@@H](C)CC
# B4: analog no. 24 (peptide)
# peptide: Palmitoyl-SRAHQHS[Nle]ETRTPDINPAWYTGRGIRPVGRY-NH2
# SMILES: CCCCCCCCCCCCCCCC(=O)N[C@@H](CO)C(=O)N[C@@H](CCCNC(=N)N)C(=O)N[C@@H](C)C(=O)N[C@@H](Cc1c[nH]cn1)C(=O)N[C@@H](CCC(N)=O)C(=O)N[C@@H](Cc1c[nH]cn1)C(=O)N[C@@H](CO)C(=O)N[C@@H](CCCC)C(=O)N[C@@H](CCC(=O)O)C(=O)N[C@H](C(=O)N[C@@H](CCCNC(=N)N)C(=O)N[C@H](C(=O)N1CCC[C@H]1C(=O)N[C@@H](CC(=O)O)C(=O)N[C@H](C(=O)N[C@@H](CC(N)=O)C(=O)N1CCC[C@H]1C(=O)N[C@@H](C)C(=O)N[C@@H](Cc1c[nH]c2ccccc12)C(=O)N[C@@H](Cc1ccc(O)cc1)C(=O)N[C@H](C(=O)NCC(=O)N[C@@H](CCCNC(=N)N)C(=O)NCC(=O)N[C@H](C(=O)N[C@@H](CCCNC(=N)N)C(=O)N1CCC[C@H]1C(=O)N[C@H](C(=O)NCC(=O)N[C@@H](CCCNC(=N)N)C(=O)N[C@@H](Cc1ccc(O)cc1)C(N)=O)C(C)C)[C@@H](C)CC)[C@@H](C)O)[C@@H](C)CC)[C@@H](C)O)[C@@H](C)O
# B5: analog no. 23 (peptide)
# peptide: SRAHQHS[Nle]ETRTPDINPAWYTGRGIRPVGRY-NH2
# modifications: N-terminus assumed
# SMILES: CCCC[C@H](NC(=O)[C@H](CO)NC(=O)[C@H](Cc1c[nH]cn1)NC(=O)[C@H](CCC(N)=O)NC(=O)[C@H](Cc1c[nH]cn1)NC(=O)[C@H](C)NC(=O)[C@H](CCCNC(=N)N)NC(=O)[C@@H](N)CO)C(=O)N[C@@H](CCC(=O)O)C(=O)N[C@H](C(=O)N[C@@H](CCCNC(=N)N)C(=O)N[C@H](C(=O)N1CCC[C@H]1C(=O)N[C@@H](CC(=O)O)C(=O)N[C@H](C(=O)N[C@@H](CC(N)=O)C(=O)N1CCC[C@H]1C(=O)N[C@@H](C)C(=O)N[C@@H](Cc1c[nH]c2ccccc12)C(=O)N[C@@H](Cc1ccc(O)cc1)C(=O)N[C@H](C(=O)NCC(=O)N[C@@H](CCCNC(=N)N)C(=O)NCC(=O)N[C@H](C(=O)N[C@@H](CCCNC(=N)N)C(=O)N1CCC[C@H]1C(=O)N[C@H](C(=O)NCC(=O)N[C@@H](CCCNC(=N)N)C(=O)N[C@@H](Cc1ccc(O)cc1)C(N)=O)C(C)C)[C@@H](C)CC)[C@@H](C)O)[C@@H](C)CC)[C@@H](C)O)[C@@H](C)O
# Columns and labels:
# [1] = biological target: T1, human PrRP receptor GPR10; assay: competition with 125I-human PrRP31, CHO cells with human GPR10
# Description: CHO cells transfected with human PrRP receptor GPR10 (Perkin Elmer, USA) were grown on 24-well plates coated with polyethyleneimine. […] The following agents were used for the experiment: binding buffer (25 mmol.1⁻¹ Tris, pH 7.4; 118 mmol.1⁻¹ NaCl, 10 mmol.1⁻¹ MgCl₂, 1 mmol.1⁻¹ CaCl₂, 5.5 mmol.1⁻¹ glucose, 0.5 mg/ml BSA), unlabeled analogs of PrRP (i.e. the analog being tested) at a final concentration between 10⁻¹¹ to 10⁻⁴ mol.1⁻¹, and radiolabeled human ¹²⁵1-PrRP31 at a final concentration of 5×10⁻¹¹ mol.1⁻¹.
# (§1) Plates were incubated for 60 minutes at room temperature. After incubation, the cells were solubilized in 0.1 mol/l solution of NaOH, and the radioactivity bound to the cells was counted using a γ-counter. The experiments were performed in duplicate, and repeated at least three times.
# [2] = biological target: T2, rat PrRP receptor in RC-4B/C cells; assay: competition with 125I-rat PrRP31, RC-4B/C cells
# Description: The rat pituitary cell line RC-4B/C (ATCC, Manassas, USA) was grown on 24-well plates which had their bottom coated with polyethyleneimine. The cells were grown to the optimal density of 300-450 thousand cells per well.
# as §1
Binder,% of PrRP31 [1],% of PrRP31 [2],Ki [2],Ki [1]
B1,92%,,,
Palmitoyl-SRAHQHS[Nle]ETRTPDINPAWYTGRGIRPVGR[Phe(F5)]-NH2 [analog no. 22],203%,966%,0.51 nM,1.92 nM
B2,0.06%,0.09%,5200 nM,6290 nM
SRAHQHSMETRTPDINPAWYTGRGIRPVGRF-NH2 (synthetic peptide) [Rat PrRP31],100%,100%,4.93 nM,3.89 nM
SRAHQHS[Nle]ETRTPDINPAWYTGRGIRPVGR[Phe(F5)]-NH2 [analog no. 21],45%,51%,9.69 nM,8.59 nM
SRTHRHSMEIK(Palmitoyl)TPDINPAWYASRGIRPVGRF-NH2 [analog no. 48],61%,,,6.37 nM
B3,54%,,,7.24 nM
SRAHQHS[Nle]ETRTPDINPAWYTGRGIRPVGRF-NH2 [analog no. 3],203%,385%,1.28 nM,1.92 nM
B4,248%,1120%,0.44 nM,1.57 nM
B5,193%,152%,3.25 nM,2.02 nM
